Data published in publication PMC12521527, “In vivo self-assembled nano-PROTAC for the dual degradation of AR and HSP90 to overcome castration-resistant prostate cancer resistance” (Signal Transduction and Targeted Therapy, 2025).
Numbered stars: 1 amine (or outer) side, 2 acyl side, 3 side chain; on linkers, the order of the positions; unused ones are H or OH. Square brackets hold non-standard residues; d marks the D form. Peptide text beside a SMILES is read from it. * marks the point of attachment. X2 = CC1(C)C(=O)N(c2ccc(C#N)c(C(F)(F)F)c2)C(=S)N1c1ccc(C(=O)*)c(F)c1; X1 = O=C1CCC(N2C(=O)c3cccc(N(CC(=O)[*:2])[*:1])c3C2=O)C(=O)N1; EuK = O=C(O)CC[C@H](NC(=O)N[C@@H](CCCCN*)C(=O)O)C(=O)O; 2Nal = N[C@@H](Cc1ccc2ccccc2c1)C(=O)O

Key:
[1] = In vivo biocompatibility in healthy mice; details: healthy BALB/c mice
Description: Fig. 7 In vivo antitumor efficacy of Psa-AR. a Schematic illustration of the tumor inoculation and treatment protocol for 22Rv1 xenograft mice. (n = 6 per group) b Observation of the tumor inhibitory effect on 22Rv1 xenograft mice in PBS, enzalutamide, pimitespib, Enza, Pimi, and Psa-AR (30 mg/kg in 200 μL of PBS) over 20 days of treatment. (Enza, Pimi: Combination therapy with enzalutamide (AR antagonist) and Pimitespib (HSP90 inhibitor)). c Kaplan‒Meier survival curves of 22Rv1 xenograft mice in different groups over 20 days of treatment. d Changes in the body weights of 22Rv1 xenograft mice in different groups over 20 days of treatment. e Terminal deoxynucleotidyl transferase (TdT) dUTP nick-end labeling (TUNEL) staining of tumors after treatment with PBS, enzalutamide, pimitespib, ENZ, Pimi or Psa-AR (30 mg/kg in 200 μL of PBS) for 20 days. Scale bar: 50 μm. f Hematoxylin‒eosin (H&E) staining of the main organs after treatment with PBS or Psa-AR (30 mg/kg in 200 μL of PBS) for 24 h. Scale bar: 50 μm. g–j Blood biochemistry data, including ALT, AST, ALP, TP, ALB, GLOB, BUN, and CRE levels, of the mice after treatment with Psa-AR (20 mg/kg in 200 μL of PBS) for 1 day or 14 days (n = 3 per group). p values were determined via one-way ANOVA followed by post hoc Tukey’s test. The data are presented as the means ± SDs
To thoroughly evaluate the in vivo biocompatibility of the Psa-AR degradation system, we performed comprehensive toxicological assessments in healthy BALB/c mice. At 24 h post-administration of either PBS or Psa-AR (30 mg/kg, n = 3 per group), we collected major organs (heart, liver, spleen, lungs, and kidneys) along with serum samples for histopathological and biochemical analysis. […] These comprehensive biosafety evaluations confirmed that the Psa-AR system maintains exceptional biocompatibility, with no acute toxicity observed in vital organs or systemic metabolic pathways. The combined histopathological and biochemical evidence strongly supports the clinical translatability of this targeted protein degradation platform.

RWPE-1 cells = experiment: Cytotoxicity in normal RWPE-1 cells; format: cell-based; details: PSMA^low normal RWPE-1 cells, 1–100 μM, 48 h of exposure
22Rv1 cells [2] = experiment: Annexin V/PI apoptosis by flow cytometry; format: cell-based; details: 22Rv1, 20 μM, 48 h, n = 3
Description: All uncropped blots are presented in Supplementary Fig. 26. j, k Representative 22Rv1 cell CLSM images of the degradation of AR after incubation with FITC-labeled Psa-AR for 12 h and quantitative analysis, n = 3 per group. Scale bar: 10 μm. l, m Representative 22Rv1 cell CLSM images of the degradation of HSP90 after incubation with FITC-labeled Psa-AR for 12 h and quantitative analysis, n = 3 per group. Scale bar: 10 μm. n AR-V7 expression in 22Rv1 cells after treatment with PBS, P-AR (20 μM), Psa-AR (20 μM) or Psa-AR (20 μM) combined with MG132 (2 μM) for 48 h, as determined by western blotting. β-Actin was used as an internal reference. o Results of apoptosis in 22Rv1 cells treated with PBS, P-AR (20 μM), or Psa-AR (20 μM) for 48 h, as detected by flow cytometry.

22Rv1 (PSMA^high) cells = experiment: Flow cytometry uptake of FITC-labeled conjugates in 22Rv1 cells; format: cell-based; details: 40 µM, 24 h, n = 3
Description: (§1) Fig. 2 a Representative 22Rv1 cell CLSM images of FITC-labeled Psa-AR (40 μM) assembly (green channel) interacting with PSMA (red channel) and its colocalization analysis (1–1’). Scale bar: 10 μm. b Representative SEM images of 22Rv1 cells after treatment with Psa-AR (40 μM) for 4 h. Scale bar: 1 μm. Scale bar: 200 nm (zoom in). c Representative 22Rv1 cell CLSM images of FITC-labeled P-AR (40 μM) (green channel) interacting with PSMA (red channel). Scale bar: 10 μm. d Representative SEM images of 22Rv1 cells after treatment with P-AR (40 μM) for 4 h. Scale bar: 1 μm. Scale bar: 200 nm (zoom in). e The uptake of either Psa-AR or P-AR by 22Rv1 (PSMA^high) and RWPE-1 (PSMA^low) cells was examined by flow cytometry, followed by comprehensive quantitative analysis (f), n = 3 per group. g Representative 22Rv1 cell CLSM images of FITC-labeled Psa-AR assembly (green channel) with lysosomes (red channel) and colocalization analysis. Scale bar: 10 μm. h Representative CLSM images of 22Rv1 cells after incubation with FITC-labeled Psa-AR (green channel) for 12 h. […]
(§2) A total of 1 × 10^5 22Rv1 cells per well were seeded in 6-well plates in DMEM containing 10% fetal bovine serum and 1% penicillin‒streptomycin. […] Then, the cells were collected to evaluate fluorescence expression via flow cytometry. […] The cells were then collected and analyzed for fluorescence expression via flow cytometry.

[3] = ThT assay of self-assembly (critical assembly concentration, assembly kinetics); format: physicochemical
[4] = test system: RWPE-1 (PSMA^low) and 22Rv1 (PSMA^high) cells; experiment: Uptake in RWPE-1 versus 22Rv1 cells (flow cytometry, IF); format: cell-based
Description: as §1, §2

22Rv1 cells [5] = format: cell-based; details: n = 6, read-out: IC50, cell viability
[6] = TEM of assemblies after PSMA addition; format: physicochemical; details: 40 μM, within 0.5 h of PSMA engagement

CC1(C)C(=O)N(c2ccc(C#N)c(C(F)(F)F)c2)C(=S)N1c1ccc(C(=O)NCCCC[C@H](NC(=O)CNc2cccc3c2C(=O)N(C2CCC(=O)NC2=O)C3=O)C(=O)N[C@@H](CS)C(=O)N[C@@H](CCC(N)=O)C(=O)N[C@@H](Cc2ccc(O)cc2)C(=O)N[C@@H](CC(N)=O)C(=O)N[C@@H](CCC(N)=O)C(=O)N[C@@H](Cc2ccc(O)cc2)C(=O)N[C@@H](Cc2ccc(O)cc2)C(=O)N[C@@H](Cc2ccc3ccccc3c2)C(=O)NCCCC[C@H](NC(=O)N[C@@H](CCC(=O)O)C(=O)O)C(=O)O)c(F)c1 (stereo partly drawn) [Psa-AR] (H-[X1]K(X2)CQYNQYY[2Nal]-EuK)
routine blood analysis (WBC, NEU, LYM, RBC, PLT, HGB, MPV) [1]: no obvious changes were detected | serum biochemistry (ALT, AST, ALP, TP, ALB, GLOB, BUN, CRE) versus PBS ([1]; 30 mg/kg, 24 h, n = 3): not significantly different between the groups | H&E histopathology of major organs (heart, liver, spleen, lungs, kidneys) ([1]; 30 mg/kg, 24 h post-administration, n = 3): no observable pathological changes | cell viability relative to vehicle controls (RWPE-1 cells): above 90% | total apoptotic cells (early and late phases) (22Rv1 cells [2]): 75% | uptake efficiency relative to nonassembling P-AR (22Rv1 (PSMA^high) cells): 5 fold | lowering of CAC by PSMA binding ([3]; ThT assay, 95.5–10.9 μM): 8.76 fold | time to full assembly equilibrium, PSMA-bound ([3]; ThT kinetic curve, 40 μM, PSMA added): 12 h | t1/2 of self-assembly (50% assembly), PSMA-bound ([3]; ThT kinetic curve, 40 μM, PSMA added, n = 3): 1.4 h | time to full assembly equilibrium, unbound ([3]; ThT kinetic curve, 40 μM, without PSMA): 60 h | t1/2 of self-assembly (50% assembly), unbound ([3]; ThT kinetic curve, 40 μM, without PSMA, n = 3): 11.4 h | critical assembly concentration (CAC) with PSMA added ([3]; standard ThT assay, PSMA added, n = 3, P-AR tested up to 50 μM): 10.9 µM | critical assembly concentration (CAC) ([3]; standard ThT assay, without PSMA, n = 3): 95.5 µM | FTIR amide I peak without PSMA: 1660 cm⁻¹ | selectivity ratio between PSMA^low RWPE-1 and PSMA^high 22Rv1 cells, relative to P-AR ([4]; FITC-labeled, 40 µM, 24 h, flow cytometry, n = 3): 13 fold | cellular uptake in RWPE-1 cells ([4]; IF, RWPE-1 (PSMA^low) cells): low cellular uptake | IC50 (22Rv1 cells [5]): 10.9 ± 1.1 µM | diameter of spherical nanoparticles [6]: 200–250 nm
